Columns and labels:
[1] = tested on: T1, R4-C9 peptide (free peptide, CTLVPHTRC)
T1 sequence: CTLVPHTRC

[2] = tested on: T2, R5-XC1 peptide (free peptide, CQKHHNYLC)
T2 sequence: CQKHHNYLC

Substance: xPSM (extracellular portion of human PSMA, Tag-xPSM digested with enterokinase, no affinity tags)
- NAALADase activity (hydrolysis of N-acetyl-L-aspartyl-L-[3,4-3H]glutamate by purified xPSM) [1]: two selected PSMA binding peptides enhanced, rather than inhibited, enzyme activity in a dose dependant manner
- NAALADase activity (hydrolysis of N-acetyl-L-aspartyl-L-[3,4-3H]glutamate by purified xPSM) [2]: two selected PSMA binding peptides enhanced, rather than inhibited, enzyme activity in a dose dependant manner
